Results on three molecules are retold here after patent US20190270786A1 (PROTAGONIST THERAPEUTICS, published 2019).

In assay [1] the target is T1, human IL-23 (human, UniProt Q9NPF7 20-189; P29460 23-328).
T1 construct: also called interleukin-23
T1 sequence (looked up) 1: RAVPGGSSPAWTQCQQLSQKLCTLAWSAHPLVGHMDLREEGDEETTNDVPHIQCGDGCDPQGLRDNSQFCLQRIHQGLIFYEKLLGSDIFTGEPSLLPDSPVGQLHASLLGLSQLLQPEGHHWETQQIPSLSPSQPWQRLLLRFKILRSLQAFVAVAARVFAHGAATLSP
T1 sequence (looked up) 2: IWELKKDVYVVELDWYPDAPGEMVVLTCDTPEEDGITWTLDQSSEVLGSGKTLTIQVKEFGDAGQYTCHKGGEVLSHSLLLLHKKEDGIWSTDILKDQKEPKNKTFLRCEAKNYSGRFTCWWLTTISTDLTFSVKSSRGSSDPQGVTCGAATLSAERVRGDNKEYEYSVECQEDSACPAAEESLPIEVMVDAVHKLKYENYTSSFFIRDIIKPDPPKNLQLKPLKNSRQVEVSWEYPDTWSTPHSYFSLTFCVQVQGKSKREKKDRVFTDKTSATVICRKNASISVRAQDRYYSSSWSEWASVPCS
Put plainly: Human IL23/IL12Rβ1 huFc competition ELISA (IL-12Rβ1_huFC coated, IL-23 at its EC50). As for the experimental part: (§1) Human IL-12Rβ1 ELISA assays were performed as follows: an assay plate was coated with 100 ng/well of human IL-12Rβ1_huFC and incubated overnight at 4° C. The wells were washed, blocked, and washed again. […] Signals were visualized with TMB One Component HRP Membrane Substrate and quenched with 2 M sulfuric acid.

For another assay, the target named is T2, mouse IL-23 (mouse, UniProt Q9EQ14 22-196; P43432 23-335).
T2 sequence (looked up) 1: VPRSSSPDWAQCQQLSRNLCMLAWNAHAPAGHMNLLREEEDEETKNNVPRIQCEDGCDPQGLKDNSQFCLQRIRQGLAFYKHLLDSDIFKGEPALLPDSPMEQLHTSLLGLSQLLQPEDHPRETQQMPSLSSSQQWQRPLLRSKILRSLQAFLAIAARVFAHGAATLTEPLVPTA
T2 sequence (looked up) 2: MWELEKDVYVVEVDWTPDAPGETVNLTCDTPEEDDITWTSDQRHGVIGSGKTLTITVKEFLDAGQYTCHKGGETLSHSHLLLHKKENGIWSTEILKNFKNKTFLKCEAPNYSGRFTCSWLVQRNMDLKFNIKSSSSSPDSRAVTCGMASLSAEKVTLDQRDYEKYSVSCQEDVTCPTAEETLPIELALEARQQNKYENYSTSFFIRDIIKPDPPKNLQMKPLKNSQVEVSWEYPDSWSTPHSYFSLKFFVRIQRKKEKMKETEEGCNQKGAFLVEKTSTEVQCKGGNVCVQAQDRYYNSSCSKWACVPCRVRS
The experiment in a line: Mouse IL23/IL23R huFc competition ELISA. A general note: An ELISA detects its analyte on a solid surface through an enzyme-linked reagent.

The target of assay [2] is T1, human IL-23. The experiment in a line: Human IL23/IL23R huFc competition ELISA. As for the experimental part: (§2) Immulon® 4HBX plate was coated with 200 ng/well of IL23R_huFC and incubated overnight at 4° C. The wells were washed three times with PBST, blocked with PBS containing 5% PhosphoBLOCKER (Cell Biolabs #AKR-103) for 1 hour at room temperature, and washed again three times with PBST. […] The wells were again washed four times with PBST. The secondary antibodies, HRP conjugated donkey anti-goat IgG (Jackson ImmunoResearch Laboratories #705-035-147) diluted 1:5000 in PBS, was then added and incubated for 30 minutes at room temperature. The plate was finally washed as above. Signals were visualized with TMB One Component HRP Membrane Substrate, quenched with 2 M sulfuric acid and read spectrophotometrically at 450 nm.

Assay [3] addresses T1, human IL-23. Put plainly: cell-based or functional assay.
A further assay concerns the target T3, human IL-12 (human, UniProt P29459 23-219; P29460 23-328).
T3 sequence (looked up) 1: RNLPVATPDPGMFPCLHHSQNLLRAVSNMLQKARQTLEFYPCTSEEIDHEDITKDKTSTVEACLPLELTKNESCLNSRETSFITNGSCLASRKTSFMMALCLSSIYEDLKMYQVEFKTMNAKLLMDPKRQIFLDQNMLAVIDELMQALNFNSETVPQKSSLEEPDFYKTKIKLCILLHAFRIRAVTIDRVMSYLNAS
T3 sequence (looked up) 2: T1 sequence (looked up) 2
The experiment in a line: Human IL12/IL12Rβ1 huFc competition ELISA (IL-12Rβ1_huFC coated, IL-12 at its EC50). Here is the method:
as §1

Assay [4] concerns the target T1, human IL-23. The experiment in a line: IL23-IL23R competitive binding ELISA (IL23R_huFC coated, 0.9 nM IL-23, peptide titrated); bin by the legend in paragraph 291. Here is the method: as §2

By IC50 is commonly meant the point on the concentration scale where inhibition reaches its midpoint. A low value points to higher potency.

Bridge positions count the residues as written; N and C are the ends.

B1: Peptide 10 (peptide)
peptide: Ac-FNMQCLRRMSEAGVDPNLNQEQRWAKIKSIMDDC-NH2
modifications: disulfide 5-34
SMILES: CC[C@H](C)[C@@H]1NC(=O)[C@H](CCCCN)NC(=O)[C@H](C)NC(=O)[C@H](Cc2c[nH]c3ccccc23)NC(=O)[C@H](CCCNC(=N)N)NC(=O)[C@H](CCC(N)=O)NC(=O)[C@H](CCC(=O)O)NC(=O)[C@H](CCC(N)=O)NC(=O)[C@H](CC(N)=O)NC(=O)[C@H](CC(C)C)NC(=O)[C@H](CC(N)=O)NC(=O)[C@@H]2CCCN2C(=O)[C@H](CC(=O)O)NC(=O)[C@H](C(C)C)NC(=O)CNC(=O)[C@H](C)NC(=O)[C@H](CCC(=O)O)NC(=O)[C@H](CO)NC(=O)[C@H](CCSC)NC(=O)[C@H](CCCNC(=N)N)NC(=O)[C@H](CCCNC(=N)N)NC(=O)[C@H](CC(C)C)NC(=O)[C@@H](NC(=O)[C@H](CCC(N)=O)NC(=O)[C@H](CCSC)NC(=O)[C@H](CC(N)=O)NC(=O)[C@H](Cc2ccccc2)NC(C)=O)CSSC[C@@H](C(N)=O)NC(=O)[C@H](CC(=O)O)NC(=O)[C@H](CC(=O)O)NC(=O)[C@H](CCSC)NC(=O)[C@H]([C@@H](C)CC)NC(=O)[C@H](CO)NC(=O)[C@H](CCCCN)NC1=O
notes: Synthetic peptide
Turning to B1, the IC50 in the assay with human IL-23 [1] was greater than 100 µM; with mouse IL-23, 3.6 µM; in the assay with human IL-23 [2], 3.3 µM; in the assay with human IL-12, greater than 100 µM. Further, the “Mouse splenocyte assay: IC50 of IL-23-dependent IL-17A release” value in the assay with human IL-23 [3] was 1.6 µM.

B2: Peptide 13 (peptide)
peptide: Ac-FNMQCLRRMAEAGVDPNLNQEQRWAKIKSIMDDC-NH2
modifications: disulfide 5-34
SMILES: CC[C@H](C)[C@@H]1NC(=O)[C@H](CCCCN)NC(=O)[C@H](C)NC(=O)[C@H](Cc2c[nH]c3ccccc23)NC(=O)[C@H](CCCNC(=N)N)NC(=O)[C@H](CCC(N)=O)NC(=O)[C@H](CCC(=O)O)NC(=O)[C@H](CCC(N)=O)NC(=O)[C@H](CC(N)=O)NC(=O)[C@H](CC(C)C)NC(=O)[C@H](CC(N)=O)NC(=O)[C@@H]2CCCN2C(=O)[C@H](CC(=O)O)NC(=O)[C@H](C(C)C)NC(=O)CNC(=O)[C@H](C)NC(=O)[C@H](CCC(=O)O)NC(=O)[C@H](C)NC(=O)[C@H](CCSC)NC(=O)[C@H](CCCNC(=N)N)NC(=O)[C@H](CCCNC(=N)N)NC(=O)[C@H](CC(C)C)NC(=O)[C@@H](NC(=O)[C@H](CCC(N)=O)NC(=O)[C@H](CCSC)NC(=O)[C@H](CC(N)=O)NC(=O)[C@H](Cc2ccccc2)NC(C)=O)CSSC[C@@H](C(N)=O)NC(=O)[C@H](CC(=O)O)NC(=O)[C@H](CC(=O)O)NC(=O)[C@H](CCSC)NC(=O)[C@H]([C@@H](C)CC)NC(=O)[C@H](CO)NC(=O)[C@H](CCCCN)NC1=O
notes: Synthetic peptide
Molecule B2 displayed a concentration for half-maximal inhibition (IC50) with human IL-23 [4] of no more than 1 µM.

B3: Ustekinumab (antibody, V domains shown)
VH: EVQLVQSGAEVKKPGESLKISCKGSGYSFTTYWLGWVRQMPGKGLDWIGIMSPVDSDIRYSPSFQGQVTMSVDKSITTAYLQWNSLKASDTAMYYCARRRPGQGYFDFWGQGTLVTVSS
VL: DIQMTQSPSSLSASVGDRVTITCRASQGISSWLAWYQQKPEKAPKSLIYAASSLQSGVPSRFSGSGSGTDFTLTISSLQPEDFATYYCQQYNIYPYTFGQGTKLEIK
B3 displayed a half-maximal inhibitory concentration (IC50) in the assay with human IL-23 [1] of 0.14 µg/mL.
